Experimental data as given in the Human Domainome abundance scans (Beltran et al. 2025).
± gives the uncertainty stated by the source.

Assay: abundance fitness (aPCA) (normalised: wild type 0, dead -1); higher = more abundant; growth selection in yeast, the domain comes from the species named
Details: Homo sapiens

Substance | abundance fitness
E3 ubiquitin-protein ligase NEDD4-like W199M, Q96PU5 | -0.514 ± 0.089
E3 ubiquitin-protein ligase NEDD4-like W199N, Q96PU5 | -0.853 ± 0.19
E3 ubiquitin-protein ligase NEDD4-like W199P, Q96PU5 | -1.03 ± 0.13
E3 ubiquitin-protein ligase NEDD4-like W199Q, Q96PU5 | -0.586 ± 0.098
E3 ubiquitin-protein ligase NEDD4-like W199R, Q96PU5 | -0.536 ± 0.065
E3 ubiquitin-protein ligase NEDD4-like W199S, Q96PU5 | -0.454 ± 0.067
E3 ubiquitin-protein ligase NEDD4-like W199T, Q96PU5 | -0.176 ± 0.09
E3 ubiquitin-protein ligase NEDD4-like W199V, Q96PU5 | -0.287 ± 0.07
E3 ubiquitin-protein ligase NEDD4-like W199Y, Q96PU5 | -0.403 ± 0.14
E3 ubiquitin-protein ligase NEDD4-like W221A, Q96PU5 | -0.035 ± 0.077
E3 ubiquitin-protein ligase NEDD4-like W221C, Q96PU5 | -0.051 ± 0.079
E3 ubiquitin-protein ligase NEDD4-like W221D, Q96PU5 | -0.029 ± 0.1
E3 ubiquitin-protein ligase NEDD4-like W221E, Q96PU5 | -0.106 ± 0.085
E3 ubiquitin-protein ligase NEDD4-like W221F, Q96PU5 | -0.04 ± 0.084
E3 ubiquitin-protein ligase NEDD4-like W221G, Q96PU5 | -0.219 ± 0.063
E3 ubiquitin-protein ligase NEDD4-like W221H, Q96PU5 | -0.243 ± 0.1
E3 ubiquitin-protein ligase NEDD4-like W221I, Q96PU5 | -0.192 ± 0.12
E3 ubiquitin-protein ligase NEDD4-like W221K, Q96PU5 | -0.044 ± 0.1
E3 ubiquitin-protein ligase NEDD4-like W221L, Q96PU5 | -0.031 ± 0.054
E3 ubiquitin-protein ligase NEDD4-like W221N, Q96PU5 | -0.402 ± 0.11

Substance | abundance fitness
E3 ubiquitin-protein ligase NEDD4-like W221Q, Q96PU5 | 0.196 ± 0.1
E3 ubiquitin-protein ligase NEDD4-like W221R, Q96PU5 | -0.052 ± 0.058
E3 ubiquitin-protein ligase NEDD4-like W221S, Q96PU5 | 0.124 ± 0.063
E3 ubiquitin-protein ligase NEDD4-like W221T, Q96PU5 | -0.035 ± 0.063
E3 ubiquitin-protein ligase NEDD4-like W221V, Q96PU5 | -0.123 ± 0.066
E3 ubiquitin-protein ligase NEDD4-like W221Y, Q96PU5 | 0.193 ± 0.12
E3 ubiquitin-protein ligase NEDD4-like Y210A, Q96PU5 | -0.379 ± 0.067
E3 ubiquitin-protein ligase NEDD4-like Y210C, Q96PU5 | -0.386 ± 0.1
E3 ubiquitin-protein ligase NEDD4-like Y210E, Q96PU5 | -0.516 ± 0.082
E3 ubiquitin-protein ligase NEDD4-like Y210F, Q96PU5 | -0.255 ± 0.1
E3 ubiquitin-protein ligase NEDD4-like Y210G, Q96PU5 | -0.621 ± 0.057
E3 ubiquitin-protein ligase NEDD4-like Y210I, Q96PU5 | -0.379 ± 0.07
E3 ubiquitin-protein ligase NEDD4-like Y210K, Q96PU5 | -0.269 ± 0.069
E3 ubiquitin-protein ligase NEDD4-like Y210L, Q96PU5 | -0.261 ± 0.058
E3 ubiquitin-protein ligase NEDD4-like Y210M, Q96PU5 | -0.19 ± 0.084
E3 ubiquitin-protein ligase NEDD4-like Y210N, Q96PU5 | -0.589 ± 0.095
E3 ubiquitin-protein ligase NEDD4-like Y210P, Q96PU5 | -0.778 ± 0.1
E3 ubiquitin-protein ligase NEDD4-like Y210Q, Q96PU5 | -0.198 ± 0.069
E3 ubiquitin-protein ligase NEDD4-like Y210R, Q96PU5 | -0.299 ± 0.063
E3 ubiquitin-protein ligase NEDD4-like Y210S, Q96PU5 | -0.359 ± 0.071

Substance | abundance fitness
E3 ubiquitin-protein ligase NEDD4-like Y210T, Q96PU5 | -0.159 ± 0.072
E3 ubiquitin-protein ligase NEDD4-like Y210V, Q96PU5 | -0.356 ± 0.069
E3 ubiquitin-protein ligase NEDD4-like Y210W, Q96PU5 | -0.287 ± 0.08
E3 ubiquitin-protein ligase NEDD4-like Y211C, Q96PU5 | -0.696 ± 0.08
E3 ubiquitin-protein ligase NEDD4-like Y211D, Q96PU5 | -0.486 ± 0.065
E3 ubiquitin-protein ligase NEDD4-like Y211E, Q96PU5 | -0.643 ± 0.058
E3 ubiquitin-protein ligase NEDD4-like Y211G, Q96PU5 | -0.749 ± 0.058
E3 ubiquitin-protein ligase NEDD4-like Y211H, Q96PU5 | -0.77 ± 0.12
E3 ubiquitin-protein ligase NEDD4-like Y211I, Q96PU5 | -0.601 ± 0.065
E3 ubiquitin-protein ligase NEDD4-like Y211K, Q96PU5 | -0.691 ± 0.097
E3 ubiquitin-protein ligase NEDD4-like Y211M, Q96PU5 | -0.779 ± 0.11
E3 ubiquitin-protein ligase NEDD4-like Y211N, Q96PU5 | -0.704 ± 0.16
E3 ubiquitin-protein ligase NEDD4-like Y211P, Q96PU5 | -0.548 ± 0.087
E3 ubiquitin-protein ligase NEDD4-like Y211Q, Q96PU5 | -0.704 ± 0.085
E3 ubiquitin-protein ligase NEDD4-like Y211R, Q96PU5 | -0.728 ± 0.052
E3 ubiquitin-protein ligase NEDD4-like Y211S, Q96PU5 | -0.715 ± 0.055
E3 ubiquitin-protein ligase NEDD4-like Y211T, Q96PU5 | -0.608 ± 0.064
E3 ubiquitin-protein ligase NEDD4-like Y211V, Q96PU5 | -0.736 ± 0.06
E3 ubiquitin-protein ligase NEDD4-like Y211W, Q96PU5 | -0.244 ± 0.078
